Here are results for four molecules from publication PMC3808539 (2013).

Where a chain is given by its changes, count along the chain named. In names and notes the source's numbering stands. Ends that are not written are not given here.

The target in experiment [1] is peptide having an Ala-Tyr-Ala C terminus. Nature of the experiment: ITC.
Experiment [2] has the same target. The experiment in a line: ITC; peptide ….
Experiment [3] concerns the target T1, FMLLRRKAYV (Bacillus subtilis).
T1 chain: FMLLRRKAYV-OH
Nature of the experiment: ITC.

B1: CtpB R168F (enzyme)
chain: MADSERDKAMDKIEKAYELISNEYVEKVDREKLLEGAIQGMLSTLNDPYSVYMDKQTAKQFSDSLDSSFEGIGAEVGMEDGKIIIVSPFKKSPAEKAGLKPNDEIISINGESMAGKDLNHAVLKIFGKKGSSVSMKIQRPGTKKQLSFRIKRAEIPLETVFASEKKVQGHSVGYIAISTFSEHTAEDFAKALRELEKKEIEGLVIDVRGNPGGYLQSVEEILKHFVTKDQPYIQIAERNGDKKRYFSTLTHKKAYPVNVITDKGSASASEILAGALKEAGHYDVVGDTSFGKGTVQQAVPMGDGSNIKLTLYKWLTPNGNWIHKKGIEPTIAIKQPDYFSAGPLQLKEPLKVDMNNEDVKHAQVLLKGLSFDPGREDGYFSKDMKKAVMAFQDQNKLNKTGVIDTRTAETLNQQIEKKKSDEKNDLQLQTALKSLFVNLEHHHHHH
Molecule B1 returned a Kd in experiment [1] of 40 µM.

B2: CtpB R168A (enzyme)
chain: B1 chain with F126A
B2 gave a Kd in experiment [1] of 21 µM.

B3: CtpB S309A, proteolytically inactive mutant (enzyme)
chain: B1 chain with F126R, A185T, L215I, S267A, V402I
The molecule B3 returned a Kd in experiment [2] of 6.5 µM.

B4: isolated PDZ domain of CtpB (domain or fragment)
chain: SVYMDKQTAKQFSDSLDSSFEGIGAEVGMEDGKIIIVSPFKKSPAEKAGLKPNDEIISINGESMAGKDLNHAVLKIRGKKGSSVSMKIQRP
Take B4: the equilibrium dissociation constant (Kd) was 2.3 µM in experiment [2] and 0.9 µM in experiment [3].
